For orientation: EC50 means the midpoint of the concentration-response curve. The IC50 is the concentration that gives 50% inhibition. What is called Kd is the equilibrium constant for the complex coming apart. For orientation: koff means the rate constant with which the complex falls apart. Usually kon stands for the rate constant with which the complex forms.

From patent publication US20230078173A1 (ELIXIRON IMMUNOTHERAPEUTICS HONG KONG, published 2023) come the findings set out here.

For assay [1], the target named is PD-L1 on PD-L1-presenting U2OS bioassay cells (UniProt Q9NZQ7 19-290). In words: cell-based or functional assay.
Chain of PD-L1 on PD-L1-presenting U2OS bioassay cells (Q9NZQ7 19-290): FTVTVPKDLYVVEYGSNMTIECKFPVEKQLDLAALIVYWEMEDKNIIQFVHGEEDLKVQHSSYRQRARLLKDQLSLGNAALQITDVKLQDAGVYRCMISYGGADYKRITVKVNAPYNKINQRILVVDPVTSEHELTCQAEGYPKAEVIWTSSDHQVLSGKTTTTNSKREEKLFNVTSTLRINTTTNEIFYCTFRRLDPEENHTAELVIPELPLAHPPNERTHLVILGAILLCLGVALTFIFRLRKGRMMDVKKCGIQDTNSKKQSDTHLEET
Assay [2] concerns the target T1, recombinant cynomolgus PD-L1 (cynomolgus monkey, UniProt Q9NZQ7 19-238 (human entry)).
T1 construct: also called cynoPD-L1; Cynomolgus PD-L1.ECD
The assay is described as follows: ELISA, cynomolgus PD-L1 immobilised (1 µg/mL). In general terms: ELISA stands for enzyme-linked immunosorbent assay.
Description: (§1) The wells were washed with wash solution (0.05% Tween20 in imidazole-buffered saline) and blocked with 1% BSA. […] After incubation at 37° C. for 1 hr, the wells were washed with wash solution. Peroxidase-conjugated Goat anti-human kappa Light chain antibody (Sigma) was applied to each well at 37° C. for 1 h incubation. […] After washing, the wells were developed with TMB substrate for 5-10 min at RT and then stopped with 1 N HCl. Thereafter, absorbance was measured at 450 nm and 650 nm. EC50 and IC50 values were calculated using GraphPad Prism7.

Assay [3] has as its target T2, recombinant human PD-L1-mFc fusion protein (human, UniProt Q9NZQ7 19-238).
T2 construct: also called hPD-L1; huPD-L1
In words: competition ELISA, PD-L1 immobilised, competitor biotin-PD-1-Fc (30 µg/mL).
Description: To test the competition activity, serial dilutions of anti-PD-L1 or anti-PD-L1/IL10 fusion proteins were added.
A recombinant human PD-L1-mFc fusion protein (1 μg/mL), recombinant cynomolgus PD-L1 (1 μg/mL; Sino Biological), or an IL10Rα-Fc fusion protein (1 μg/mL, R&D Systems) were immobilized on 96 well microtiter plate at a concentration of 1 μg/ml in Coating Solution (SeraCare) overnight at 4° C. The wells were washed with wash solution (0.05% Tween20 in imidazole-buffered saline) and blocked with 1% BSA. Serial dilutions of anti-PD-L1 or anti-PD-L1/IL10 fusion proteins were added to wells. After incubation at 37° C. for 1 hr, the wells were washed with wash solution. Peroxidase-conjugated Goat anti-human kappa Light chain antibody (Sigma) was applied to each well at 37° C. for 1 h incubation. […] After washing, the wells were developed with TMB substrate for 5-10 min at RT and then stopped with 1 N HCl. Thereafter, absorbance was measured at 450 nm and 650 nm. EC50 and IC50 values were calculated using GraphPad Prism7.

Assay [4] addresses T2, recombinant human PD-L1-mFc fusion …. In words: ELISA, human PD-L1-mFc immobilised (1 µg/mL), anti-human kappa-HRP detection.
Description: as §1
The target in assay [5] is T3, recombinant human PD-L1-His (human, UniProt Q9NZQ7 19-238).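 Also: rates obtained by 1:1 Langmuir fitting of the binding response, using a 2.5 min association phase then a 5 min dissociation phase.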
T3 construct: Analyte of the BLI assay; also called hPD-L1
T3 sequence (Q9NZQ7 19-238): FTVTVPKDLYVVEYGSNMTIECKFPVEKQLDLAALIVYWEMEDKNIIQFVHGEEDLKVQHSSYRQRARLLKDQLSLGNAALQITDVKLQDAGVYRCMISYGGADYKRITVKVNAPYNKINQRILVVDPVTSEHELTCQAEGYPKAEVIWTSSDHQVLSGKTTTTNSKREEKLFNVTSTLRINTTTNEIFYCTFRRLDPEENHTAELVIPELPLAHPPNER
The assay is described as follows: BLI (Octet RED96), antibody captured on AHC biosensor, PD-L1-His in solution, 1:1 model. (In BLI a coated tip is dipped into the sample, and binding shifts an interference pattern.)
Description: Rate constants were calculated by curve fitting analyses (1:1 Langmuir model) of binding response with a 2.5-minute association and 5-minute dissociation interaction time.

T2 sequence (Q9NZQ7 19-238): as above
T1 sequence (Q9NZQ7 other isoform, or with tags, fused parts or gaps limits assumed): as the sequence (Q9NZQ7 19-238) above, with A33T, A34S, S62N, R68Q, Q82R, F173L, T185A, T192I, H215L counted along it

B1: PHS102 (antibody, human IgG1, kappa, N297A)
heavy: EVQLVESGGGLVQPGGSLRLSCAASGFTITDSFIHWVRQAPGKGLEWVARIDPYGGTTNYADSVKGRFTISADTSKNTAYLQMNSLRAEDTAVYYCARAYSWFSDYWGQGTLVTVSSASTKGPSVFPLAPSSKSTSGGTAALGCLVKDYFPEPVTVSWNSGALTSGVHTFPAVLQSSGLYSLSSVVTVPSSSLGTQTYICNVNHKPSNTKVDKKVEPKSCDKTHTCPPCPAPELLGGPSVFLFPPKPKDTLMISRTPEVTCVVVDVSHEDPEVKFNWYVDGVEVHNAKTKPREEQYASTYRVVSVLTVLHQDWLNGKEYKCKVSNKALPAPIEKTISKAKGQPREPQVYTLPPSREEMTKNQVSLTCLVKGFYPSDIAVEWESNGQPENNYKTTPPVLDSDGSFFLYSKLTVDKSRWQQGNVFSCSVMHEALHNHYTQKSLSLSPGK
light: DIQMTQSPSSLSASVGDRVTITCRAGQDVYKAVAWYQQKPGKAPKLLIYWSTNLYSGVPSRFSGSGSGTDFTLTISSLQPEDFATYYCQQGSTWPLTFGQGTKVEIKRTVAAPSVFIFPPSDEQLKSGTASVVCLLNNFYPREAKVQWKVDNALQSGNSQESVTEQDSKDSTYSLSSTLTLSKADYEKHKVYACEVTHQGLSSPVTKSFNRGEC
On to B1, for which the “IC50, blocking PD-1/PD-L1 signaling (PathHunter PD-1 Signaling Bioassay, U2OS PD-L1 cells + Jurkat PD-1 signaling cells)” value in assay [1] is 3.18 nM. Also, the EC50 in assay [2] was 0.216 nM. The IC50 in assay [3] amounted to 0.182 nM. In assay [4], the EC50 turned out to be 0.0784 nM. Moreover, in assay [5], the Kd was 14.4 nM, the koff was 0.00679 s⁻¹ and the kon was determined as 473000 M⁻¹ s⁻¹.

B2: Atezolizumab (antibody)
heavy: not shown
light: DIQMTQSPSSLSASVGDRVTITCRASQDVSTAVAWQQKPGKAPKLLIYSASFLYSGVPSRFSGSGSGTDFTLTISSLQPEDFATYYCQQYLYHPATFGQGTKVEIKRRTVAAPSVFIFPPSDEQLKSGTASVVCLLNNFYPREAKVQWKVDNALQSGNSQESVTEQDSKDSTYSLSSTLTLSKADYEKHKVYACEVTHQGLSSPVTKSFNRGEC
notes: also called YW243.55.S70; MPDL3280A
Regarding B2, the EC50 in assay [2] stood at 0.14 nM. Moreover, the IC50 in assay [3] is 0.239 nM.
